biological target: LRP6 E1E2 protein (human) (UniProt O75581); experiment: spot phage ELISA
Sequence (O75581 20-630 limits assumed): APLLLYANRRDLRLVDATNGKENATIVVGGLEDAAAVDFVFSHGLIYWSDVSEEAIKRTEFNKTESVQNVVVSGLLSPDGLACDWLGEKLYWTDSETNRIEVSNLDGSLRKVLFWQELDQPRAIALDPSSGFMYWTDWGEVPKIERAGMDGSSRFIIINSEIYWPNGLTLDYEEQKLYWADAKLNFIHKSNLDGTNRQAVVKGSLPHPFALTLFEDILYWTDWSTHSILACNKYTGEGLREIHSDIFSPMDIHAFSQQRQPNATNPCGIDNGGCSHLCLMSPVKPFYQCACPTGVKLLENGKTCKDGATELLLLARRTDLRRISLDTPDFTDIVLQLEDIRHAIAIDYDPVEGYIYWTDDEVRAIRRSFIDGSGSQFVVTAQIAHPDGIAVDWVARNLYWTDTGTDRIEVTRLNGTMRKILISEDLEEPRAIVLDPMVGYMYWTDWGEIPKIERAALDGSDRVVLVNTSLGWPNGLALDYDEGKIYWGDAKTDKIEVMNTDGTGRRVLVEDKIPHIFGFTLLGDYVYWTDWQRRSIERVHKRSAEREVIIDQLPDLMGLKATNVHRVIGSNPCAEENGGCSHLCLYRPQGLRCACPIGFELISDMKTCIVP

| Binder | ELISA | S/N |
| --- | --- | --- |
| GCVNRVRGCKQDSDCLAGCVCSGGRDCG (designed binder) [LRP6_CKP2] | 3.41 | 41.6 |
| GCNRIRNSCKQDSDCLAGCVCGRGDYCG (designed binder) [LRP6_CKP15] | 2.03 | 26.3 |
| GCRSNKLREARGCKQDSDCLAGCVCGSRQDCG (designed binder) [LRP6_CKP12] | 0.6 | 6.78 |
| GCVSNRVNKGCKQDSDCLAGCVCGPNGFCG (designed binder) [LRP6_CKP7] | 3.3 | 29 |
| GCSNYVKRCKQDSDCLAGCVCSPGGRCG (designed binder) [LRP6_CKP17] | 3.09 | 35.9 |
| GCASSNSIRQGWCKQDSDCLAGCVCGPKSNCG (designed binder) [LRP6_CKP10] | 3.29 | 37.4 |
| GCRSGNTIRKRECKQDSDCLAGCVCGGPGGCG (designed binder) [LRP6_CKP9] | 2.97 | 37.6 |
| GCVNSVKRCKQDSDCLAGCVCSRGVNCG (designed binder) [LRP6_CKP13] | 3.28 | 37.8 |
| GCRSVNKICKQDSDCLAGCVCGSSRNCG (designed binder) [LRP6_CKP4] | 2.82 | 25.4 |
| GCRNSIKRCKQNSDCLAGCVCSVGHGCG (designed binder) [LRP6_CKP6] | – | 37.4 |
| GCRGNIIKCKQDSDCLAGCVCNESRGCG (designed binder) [LRP6_CKP8] | 3.23 | 37.6 |
| GCSRNSIKCKQDSDCLAGCVCASGSSCG (designed binder) [LRP6_CKP16] | 3.36 | 31.1 |
| GCSNRVKVRACKQDSDCLAGCVCGPNGFCG (designed binder) [LRP6_CKP19] | 3.27 | 42 |
| GCRANRVSGRCKQDSDCLAGCVCGPNGFCG (designed binder) [LRP6_CKP18] | 1.67 | 18.3 |
| GCMNHVKARRCKQDSDCLAGCVCGPNGFCG (designed binder) [LRP6_CKP3] | 2.93 | 40.2 |
| GCRTNRVKGGCKQDSDCLAGCVCGPNGFCG (designed binder) [LRP6_CKP1] | 3.23 | 45.5 |
| GCVNKIKGCKQDSDCLAGCVCGVEGRCG (designed binder) [LRP6_CKP5] | 3.04 | 35.7 |
| GCRSNRIRCKQDSDCLAGCVCYGHGDCG (designed binder) [LRP6_CKP11] | 2.65 | 36.8 |
| GCGSNKIRPRCKQDSDCLAGCVCGPNDFCG (designed binder) [LRP6_CKP14] | 3.18 | 43.5 |

biological target: T1, hVEGF-A (8-109) (human, UniProt P15692 214-315); experiment: spot phage ELISA
T1 construct: residue numbers count on mature VEGF-A; dimer
T1 sequence (looked up): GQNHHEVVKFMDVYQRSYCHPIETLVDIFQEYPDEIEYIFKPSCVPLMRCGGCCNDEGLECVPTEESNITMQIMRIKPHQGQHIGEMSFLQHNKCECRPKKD

| Binder | ELISA | S/N | binding result |
| --- | --- | --- | --- |
| GCLDPSFDWALYCKQDSDCLAGCVCQLYNSCG (designed binder) [LRP6_CKP7.89] | 0.5 | 8.1 | – |
| GCQDPKLNWAVYCKQDSDCLAGCVCQLFNSCG (designed binder) [VEGF_CKP7.88] | 0.5 | 7.7 | – |
| GCLDPTVNWALFCKQDSDCLAGCVCQHYKTCG (designed binder) [VEGF_CKP7.81] | 1.1 | 18.6 | – |
| GCDVMQPYWGCEMDFDCLAGCICHWYNSCGFS (designed binder) [9.63-4] | – | – | binds |
| GCDVMQPYWGCEMDFDCLAGCVCHWYNSCGPL (designed binder) [9.63.44-12] | – | – | binds |
| GCDVMQPYWGCEMDFDCLAGCICHWYNSCGYA (designed binder) [9.63-22] | – | – | binds |
| GCDVMQPYWGCEMDFDCLAGCICHWYNSCGSR (designed binder) [9.63.44-4] | – | – | binds |
| GCDVMQPYWGCEMDFDCLAGCVCHWYNSCGGI (designed binder) [9.63-67] | – | – | binds |
| GCDVMQPYWGCEMDFDCLAGCVCHWYNSCGGI (designed binder) [9.63.44-10-A] | – | – | binds |
| GCDVMQPYWGCEMDFDCLAGCICHWYNSCGLQ (designed binder) [9.63-79] | – | – | binds |
| GCDVMQPYWGCEMDFDCLAGCICHWYNSCGQV (designed binder) [9.63-20] | – | – | binds |
| GCDVMQPYWGCEMDFDCLAGCICHWYNSCGTS (designed binder) [9.63.44-8] | – | – | binds |
| GCDVMQPYWGCEMDFDCLVGCVCHWYNSCGDE (designed binder) [9.63.44-10] | – | – | binds |
| GCDVMQPYWGCEMDFDCLAGCVCHWYNSCGPL (designed binder) [9.63-70] | – | – | binds |
| GCDVMQPYWGCEMDFDCLAGCICHWYNSCGQV (designed binder) [9.63.44-2] | – | – | binds |
| GCDVMQPYWGCEMDFDCLAGCVCHWYNSCGQF (designed binder) [9.63.44-13] | – | – | binds |
| GCDVMQPYWGCEMDFDCLAGCICHWYNSCGTS (designed binder) [9.63-72] | – | – | binds |
| GCDVMQPYWGCEMDFDCLAGCICHWYNSCGFS (designed binder) [9.63.44-1] | – | – | binds |
| GCDVMQPYWGCEMDFDCLAGCVCHWYNSCGGI (designed binder) [9.63.44-7] | – | – | binds |
| GCDVMQPYWGCEMDFDCLAGCICHWYNSCGLQ (designed binder) [9.63.44-9] | – | – | binds |
| GCDVMQPYWGCEMDFDCLAGCICHWYNSCGSR (designed binder) [9.63-25] | – | – | binds |
| GCDVMQPYWGCEMDFDCLAGCICHWYNSCGYA (designed binder) [9.63.44-3] | – | – | binds |

Source: patent US20230174596A1 (published 2023)
